The test system of data set [1] is Nc1ncnc2c1ncn2[C@H]1C[C@H](O)[C@@H](COP(=O)(O)OP(=O)(O)OP(=O)(O)O)O1. Nature of the data set: purified protein. To be noted: ssDNA-dependent (80-nt oligonucleotide, 12.16 μM nucleotides), 11.56 mM MgCl2, 20 mM Tris-HCl pH 7.5, 37 °C, Hill fit, n 1.2. The format is biochemical, Deinococcus geothermalis.
Data set [2] has as its system Nc1ncnc2c1ncn2[C@@H]1O[C@H](COP(=O)(O)OP(=O)(O)OP(=O)(O)O)[C@@H](O)[C@H]1O. As to the kind of experiment: purified protein. The format is biochemical, Deinococcus geothermalis. The note with it: ssDNA-dependent (80-nt oligonucleotide, 12.16 μM nucleotides), 11.56 mM MgCl2, 20 mM Tris-HCl pH 7.5, 37 °C, Hill fit, n 2.9.

For 1 substance, Km, kcat and kcat/Km results are on record in paper PMC3103430, “RecA Proteins from Deinococcus geothermalis and Deinococcus murrayi - Cloning, Purification and Biochemical Characterisation” (BMC Molecular Biology, 2011).

For orientation: Km means the concentration of substrate that gives half-maximal velocity. One may read the kcat as the maximal rate divided by the concentration of active sites. A word on the kcat/Km: it is the second-order rate constant that governs catalysis at low substrate concentration. As for “DgeRecA (Deinococcus geothermalis DSM 11300)”, in data set [1], the Km amounted to 620 ± 23 µM, the turnover number (kcat) came to 0.21 ± 0.007 s⁻¹ and the kcat/Km was found to be 330 ± 10 M⁻¹ s⁻¹. In data set [2], the Km is 560 ± 18 µM, the kcat was 0.15 ± 0.004 s⁻¹ and the specificity constant (kcat/Km) was found to be 270 ± 12 M⁻¹ s⁻¹.
